Patent US20240018265A1 (FRIEDRICH MIESCHER INSTITUTE FOR BIOMEDICAL RESEARCH, published 2024)

Columns and labels:
GFP(10)-ubiquitin = molecular target: T1, GFP(10)-ubiquitin (UniProt P0CG48 1-76); assay: split-GFP assay in 293T cells (specificity control)
T1 construct: Expressed in 293T cells; not shown: GFP beta strand 10 and any linker

[1] = molecular target: T2, endogenous HDAC6 (A549 cells) (human, UniProt Q9UBN7 1-1215); assay: GFP-trap immunoprecipitation of GFP-DARPin F10 against control GFP-DARPin E3_5 from A549 cells, mass spectrometry, volcano plot
T2 construct: Endogenous intracellular protein, not a recombinant construct; also called histone deacetylase 6
T2 sequence (looked up): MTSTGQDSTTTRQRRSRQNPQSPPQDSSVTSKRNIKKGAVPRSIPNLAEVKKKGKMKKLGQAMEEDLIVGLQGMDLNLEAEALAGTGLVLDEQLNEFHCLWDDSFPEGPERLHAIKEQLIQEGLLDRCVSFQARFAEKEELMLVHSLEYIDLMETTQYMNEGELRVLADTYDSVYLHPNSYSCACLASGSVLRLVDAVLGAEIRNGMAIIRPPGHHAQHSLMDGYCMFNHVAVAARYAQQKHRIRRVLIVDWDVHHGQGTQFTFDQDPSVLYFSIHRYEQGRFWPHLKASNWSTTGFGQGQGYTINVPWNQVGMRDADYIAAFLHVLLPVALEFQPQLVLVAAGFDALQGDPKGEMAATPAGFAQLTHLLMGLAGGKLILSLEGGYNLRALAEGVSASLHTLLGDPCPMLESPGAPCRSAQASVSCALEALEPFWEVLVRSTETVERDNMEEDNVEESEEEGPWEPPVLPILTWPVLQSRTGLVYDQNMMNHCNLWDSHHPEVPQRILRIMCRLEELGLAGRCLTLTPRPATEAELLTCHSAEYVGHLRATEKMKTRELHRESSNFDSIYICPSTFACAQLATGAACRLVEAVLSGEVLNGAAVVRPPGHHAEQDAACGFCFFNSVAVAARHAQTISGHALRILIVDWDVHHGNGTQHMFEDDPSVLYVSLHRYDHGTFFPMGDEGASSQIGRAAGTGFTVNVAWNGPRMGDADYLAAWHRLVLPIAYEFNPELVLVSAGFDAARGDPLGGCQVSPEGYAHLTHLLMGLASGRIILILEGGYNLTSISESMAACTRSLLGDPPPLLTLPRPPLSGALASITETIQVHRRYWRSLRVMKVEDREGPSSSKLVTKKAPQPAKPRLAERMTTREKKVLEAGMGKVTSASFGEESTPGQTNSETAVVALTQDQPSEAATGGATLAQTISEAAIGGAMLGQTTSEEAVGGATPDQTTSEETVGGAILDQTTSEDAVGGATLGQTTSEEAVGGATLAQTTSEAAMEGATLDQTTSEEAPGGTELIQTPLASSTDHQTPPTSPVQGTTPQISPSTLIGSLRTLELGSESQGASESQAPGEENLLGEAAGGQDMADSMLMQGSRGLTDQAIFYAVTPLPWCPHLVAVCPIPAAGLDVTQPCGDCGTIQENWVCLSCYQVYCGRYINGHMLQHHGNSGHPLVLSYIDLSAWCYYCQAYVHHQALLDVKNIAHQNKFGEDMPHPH
Text: (§1) [0013] (A) Schematic of HDAC6, showing the catalytic domains (CD1, CD2) and the zinc finger domain (ZnF) region that was expressed (amino acids 1108 to 1215) and used to identify binders. Generic nanobody and DARPin structures (PDB:1I3V and PDB:2QJY, respectively) are shown below. […] [0014] […] PD, pull-down; FT, flow-through. [0015] […] A plasmid expressing mRuby was included in all transfections as a control for transfection efficiency (red signal). Scale bar presents […]. [0016] […] [0017] […] Immunoprecipitated material (from D above) was analysed by mass spectrometry and enriched proteins are annotated.

[2] = molecular target: T3, Purified His-tagged human HDAC6 ZnF domain (1108-1215) (human, UniProt Q9UBN7 1108-1215); assay: pull-down with anti-Flag agarose beads from a mix of His-ZnF (1108-1215), Flag-DARPin and mono-ubiquitin; immunoblot with anti-His, anti-ubiquitin and anti-Flag
T3 construct: range 1108-1215; also called ZnF-UBP; His-HDAC6 ZnF (1108-1215); not shown: His tag from vector pOPINF
T3 sequence (looked up): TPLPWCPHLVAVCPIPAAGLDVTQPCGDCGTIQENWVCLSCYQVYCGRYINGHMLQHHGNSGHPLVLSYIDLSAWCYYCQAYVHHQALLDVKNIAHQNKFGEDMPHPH
Text: as §1

B1: GFP(11)-HDAC6 ZnF (1108-1215) W1182A mutant (other, human, UniProt Q9UBN7 1108-1215, looked up)
chain: TPLPWCPHLVAVCPIPAAGLDVTQPCGDCGTIQENWVCLSCYQVYCGRYINGHMLQHHGNSGHPLVLSYIDLSAACYYCQAYVHHQALLDVKNIAHQNKFGEDMPHPH
notes: range 1108-1215; Specificity control in the split-GFP assay; also called ZnFm; 1182 mutant; not shown: GFP beta strand 11 and any linker
GFP(10)-ubiquitin
  binding result: no binding

B2: GFP-DARPin F10 fusion protein (designed binder)
chain: DLGKKLLEAARAGQDDEVRILMANGADVNANDRNGVTPLHLAADKGHLEIVEVLLKTGADVNAIDIMGATPLHLAAAHGHLEIVEVLLKAGADVNAMDHKGFTPLHLAAWRGHLEIVEVLLKHGADVNAQDKFGKTPFDLAIDNGNEDIAEVLQKAA
notes: Transiently expressed in A549 cells from pcDNA3.1-GFP-DARPin F10; not shown: GFP and any linker
[1]
  binding result: binds

B3: Flag-tagged DARPin F10 (F10 with histidine and detection tags) (designed binder)
chain: MRGSHHHHHHHHGSDLGKKLLEAARAGQDDEVRILMANGADVNANDRNGVTPLHLAADKGHLEIVEVLLKTGADVNAIDIMGATPLHLAAAHGHLEIVEVLLKAGADVNAMDHKGFTPLHLAAWRGHLEIVEVLLKHGADVNAQDKFGKTPFDLAIDNGNEDIAEVLQKAAKLNDYKDDDDK
[2]
  binding result: binds
